Key:
Assay in all cases: cell-based or functional assay
[1] = molecular target: HIV-1 Env of pseudovirus 1006_11_C3_1601 (HIV-1)
[2] = molecular target: HIV-1 Env of pseudovirus 1056_10_TA11_1826 (HIV-1)
[3] = molecular target: HIV-1 Env of pseudovirus 1394C9G1(Rev-) (HIV-1)
[4] = molecular target: HIV-1 Env of pseudovirus 191084 B7-19 (HIV-1)
[5] = molecular target: HIV-1 Env of pseudovirus 231965.c01 (HIV-1)
[6] = molecular target: HIV-1 Env of pseudovirus 246F C1G (HIV-1)
[7] = molecular target: HIV-1 Env of pseudovirus 3817.v2.c59 (HIV-1)
[8] = molecular target: HIV-1 Env of pseudovirus 620345.c01 (HIV-1)
[9] = molecular target: HIV-1 Env of pseudovirus 6545.v4.c1 (HIV-1)
[10] = molecular target: HIV-1 Env of pseudovirus 6811.v7.c18 (HIV-1)
[11] = molecular target: HIV-1 Env of pseudovirus A07412M1.vrc12 (HIV-1)
[12] = molecular target: HIV-1 Env of pseudovirus BJOX010000.06.2 (HIV-1)
[13] = molecular target: HIV-1 Env of pseudovirus C2101.c01 (HIV-1)
[14] = molecular target: HIV-1 Env of pseudovirus Ce0393_C3 (HIV-1)
[15] = molecular target: HIV-1 Env of pseudovirus Ce1172_H1 (HIV-1)
[16] = molecular target: HIV-1 Env of pseudovirus Ce703010054_2A2 (HIV-1)
[17] = molecular target: HIV-1 Env of pseudovirus Ce704809221_1B3 (HIV-1)
[18] = molecular target: HIV-1 Env of pseudovirus Du156.12 (HIV-1)
[19] = molecular target: HIV-1 Env of pseudovirus Du422.1 (HIV-1)
[20] = molecular target: HIV-1 Env of pseudovirus PVO.4 (HIV-1)
[21] = molecular target: HIV-1 Env of pseudovirus Q769.d22 (HIV-1)
[22] = molecular target: HIV-1 Env of pseudovirus QH0692.42 (HIV-1)
[23] = molecular target: HIV-1 Env of pseudovirus R2184.c04 (HIV-1)
[24] = molecular target: HIV-1 Env of pseudovirus R3265.c06 (HIV-1)
[25] = molecular target: HIV-1 Env of pseudovirus SC05_8C11_2344 (HIV-1)
[26] = molecular target: HIV-1 Env of pseudovirus SC422661.8 (HIV-1)
[27] = molecular target: HIV-1 Env of pseudovirus T251-18 (HIV-1)
[28] = molecular target: HIV-1 Env of pseudovirus T278-50 (HIV-1)
[29] = molecular target: HIV-1 Env of pseudovirus THRO4156.18 (HIV-1)
[30] = molecular target: HIV-1 Env of pseudovirus WITO4160.33 (HIV-1)
[31] = molecular target: HIV-1 Env of pseudovirus X1193_c1 (HIV-1)
[32] = molecular target: HIV-1 Env of pseudovirus X2088_c9 (HIV-1)
[33] = molecular target: HIV-1 Env of pseudovirus X2131_C1_B5 (HIV-1)
[34] = molecular target: HIV-1 Env of pseudovirus ZM214M.PL15 (HIV-1)
[35] = molecular target: HIV-1 Env of pseudovirus ZM233M.PB6 (HIV-1)
[36] = molecular target: HIV-1 Env of pseudovirus ZM249M.PL1 (HIV-1)

## N49P6 (antibody)
[1]
  IC50: 0.068 µg/mL
  IC80: 0.209 µg/mL
  MPI: 100
[2]
  IC50: 0.209 µg/mL
  IC80: 0.606 µg/mL
  MPI: 100
[3]
  IC50: 17.5 µg/mL
  IC80: > 50 µg/mL
  MPI: 80
[4]
  IC50: 0.062 µg/mL
  IC80: 0.257 µg/mL
  MPI: 100
[5]
  IC50: 9.24 µg/mL
  IC80: 39.4 µg/mL
  MPI: 87
[6]
  IC50: 0.513 µg/mL
  IC80: 2.51 µg/mL
  MPI: 99
[7]
  IC50: 16.9 µg/mL
  IC80: > 50 µg/mL
  MPI: 78
[8]
  IC50: 22.9 µg/mL
  IC80: > 50 µg/mL
  MPI: 70
[9]
  IC50: 24.5 µg/mL
  IC80: > 50 µg/mL
  MPI: 76
[10]
  IC50: 0.238 µg/mL
  IC80: 1.01 µg/mL
  MPI: 100
[11]
  IC50: 0.229 µg/mL
  IC80: 0.786 µg/mL
  MPI: 100
[12]
  IC50: 0.681 µg/mL
  IC80: 3.53 µg/mL
  MPI: 100
[13]
  IC50: 0.14 µg/mL
  IC80: 0.597 µg/mL
  MPI: 100
[14]
  IC50: 0.608 µg/mL
  IC80: 3.25 µg/mL
  MPI: 100
[15]
  IC50: 14.4 µg/mL
  IC80: 47.3 µg/mL
  MPI: 82
[16]
  IC50: 0.245 µg/mL
  IC80: 0.841 µg/mL
  MPI: 100
[17]
  IC50: 1.67 µg/mL
  IC80: 12.8 µg/mL
  MPI: 97
[18]
  IC50: 0.082 µg/mL
  IC80: 0.28 µg/mL
  MPI: 100
[19]
  IC50: 44 µg/mL
  IC80: > 50 µg/mL
  MPI: 57
[20]
  IC50: 0.128 µg/mL
  IC80: 0.357 µg/mL
  MPI: 100
[21]
  IC50: 0.072 µg/mL
  IC80: 0.318 µg/mL
  MPI: 100
[22]
  IC50: 0.652 µg/mL
  IC80: 2.28 µg/mL
  MPI: 100
[23]
  IC50: 0.028 µg/mL
  IC80: 0.077 µg/mL
  MPI: 100
[24]
  IC50: 0.101 µg/mL
  IC80: 0.443 µg/mL
  MPI: 100
[25]
  IC50: 0.266 µg/mL
  IC80: 0.911 µg/mL
  MPI: 100
[26]
  IC50: 0.129 µg/mL
  IC80: 0.36 µg/mL
  MPI: 100
[27]
  IC50: 0.344 µg/mL
  IC80: 0.929 µg/mL
  MPI: 100
[28]
  IC50: 25.7 µg/mL
  IC80: > 50 µg/mL
  MPI: 67
[29]
  IC50: 12.5 µg/mL
  IC80: 38.4 µg/mL
  MPI: 89
[30]
  IC50: 0.096 µg/mL
  IC80: 0.277 µg/mL
  MPI: 100
[31]
  IC50: 0.074 µg/mL
  IC80: 0.224 µg/mL
  MPI: 100
[32]
  IC50: 27 µg/mL
  IC80: > 50 µg/mL
  MPI: 65
[33]
  IC50: 0.174 µg/mL
  IC80: 0.72 µg/mL
  MPI: 100
[34]
  IC50: 0.51 µg/mL
  IC80: 1.8 µg/mL
  MPI: 100
[35]
  IC50: 1.23 µg/mL
  IC80: 4 µg/mL
  MPI: 99
[36]
  IC50: 0.112 µg/mL
  IC80: 0.376 µg/mL
  MPI: 100

## N49P7.1 (antibody)
[1]
  neutralization IC50: 0.061 µg/mL
  neutralization IC80: 0.193 µg/mL
  neutralization MPI: 100
[2]
  neutralization IC50: 0.171 µg/mL
  neutralization IC80: 0.603 µg/mL
  neutralization MPI: 100
[3]
  neutralization IC50: 4.37 µg/mL
  neutralization IC80: 30.9 µg/mL
  neutralization MPI: 88
[4]
  neutralization IC50: 0.069 µg/mL
  neutralization IC80: 0.2 µg/mL
  neutralization MPI: 100
[6]
  neutralization IC50: 0.049 µg/mL
  neutralization IC80: 0.165 µg/mL
  neutralization MPI: 100
[8]
  neutralization IC50: > 50 µg/mL
  neutralization IC80: > 50 µg/mL
  neutralization MPI: 47
[12]
  neutralization IC50: 0.132 µg/mL
  neutralization IC80: 0.623 µg/mL
  neutralization MPI: 100
[13]
  neutralization IC50: 0.076 µg/mL
  neutralization IC80: 0.425 µg/mL
  neutralization MPI: 100
[14]
  neutralization IC50: 0.23 µg/mL
  neutralization IC80: 1.02 µg/mL
  neutralization MPI: 100
[15]
  neutralization IC50: 17.1 µg/mL
  neutralization IC80: > 50 µg/mL
  neutralization MPI: 78
[16]
  neutralization IC50: 0.085 µg/mL
  neutralization IC80: 0.364 µg/mL
  neutralization MPI: 100
[17]
  neutralization IC50: 0.211 µg/mL
  neutralization IC80: 1.35 µg/mL
  neutralization MPI: 100
[18]
  neutralization IC50: 0.045 µg/mL
  neutralization IC80: 0.131 µg/mL
  neutralization MPI: 100
[19]
  neutralization IC50: 3.76 µg/mL
  neutralization IC80: 15.7 µg/mL
  neutralization MPI: 93
[20]
  neutralization IC50: 0.124 µg/mL
  neutralization IC80: 0.421 µg/mL
  neutralization MPI: 100
[21]
  neutralization IC50: 0.044 µg/mL
  neutralization IC80: 0.163 µg/mL
  neutralization MPI: 100
[22]
  neutralization IC50: 0.764 µg/mL
  neutralization IC80: 2.71 µg/mL
  neutralization MPI: 100
[23]
  neutralization IC50: 0.018 µg/mL
  neutralization IC80: 0.04 µg/mL
  neutralization MPI: 100
[24]
  neutralization IC50: 0.059 µg/mL
  neutralization IC80: 0.328 µg/mL
  neutralization MPI: 100
[25]
  neutralization IC50: 0.189 µg/mL
  neutralization IC80: 0.688 µg/mL
  neutralization MPI: 100
[26]
  neutralization IC50: 0.125 µg/mL
  neutralization IC80: 0.417 µg/mL
  neutralization MPI: 100
[27]
  neutralization IC50: 0.229 µg/mL
  neutralization IC80: 0.794 µg/mL
  neutralization MPI: 100
[28]
  neutralization IC50: 42.4 µg/mL
  neutralization IC80: > 50 µg/mL
  neutralization MPI: 56
[29]
  neutralization IC50: 3.07 µg/mL
  neutralization IC80: 12.6 µg/mL
  neutralization MPI: 98
[30]
  neutralization IC50: 0.121 µg/mL
  neutralization IC80: 0.326 µg/mL
  neutralization MPI: 100
[31]
  neutralization IC50: 0.035 µg/mL
  neutralization IC80: 0.144 µg/mL
  neutralization MPI: 100
[32]
  neutralization IC50: 0.199 µg/mL
  neutralization IC80: 0.726 µg/mL
  neutralization MPI: 100
[34]
  neutralization IC50: 0.257 µg/mL
  neutralization IC80: 0.853 µg/mL
  neutralization MPI: 100
[35]
  neutralization IC50: 0.355 µg/mL
  neutralization IC80: 1.25 µg/mL
  neutralization MPI: 100
[36]
  neutralization IC50: 0.071 µg/mL
  neutralization IC80: 0.239 µg/mL
  neutralization MPI: 100

## N49P11 (antibody)
[4]
  IC50: 0.065 µg/mL
  IC80: 0.276 µg/mL
  MPI: 100
[5]
  IC50: 9.78 µg/mL
  IC80: 24.2 µg/mL
  MPI: 100
[7]
  IC50: 4.72 µg/mL
  IC80: 15.9 µg/mL
  MPI: 100
[8]
  IC50: 11.7 µg/mL
  IC80: 27.9 µg/mL
  MPI: 100
[9]
  IC50: 6.47 µg/mL
  IC80: 22.9 µg/mL
  MPI: 100
[10]
  IC50: 3.68 µg/mL
  IC80: 14.6 µg/mL
  MPI: 100
[11]
  IC50: 2.52 µg/mL
  IC80: 12.9 µg/mL
  MPI: 100
[12]
  IC50: 6.81 µg/mL
  IC80: 21.8 µg/mL
  MPI: 100
[13]
  IC50: 0.084 µg/mL
  IC80: 0.505 µg/mL
  MPI: 100
[23]
  IC50: 0.034 µg/mL
  IC80: 0.12 µg/mL
  MPI: 100
[24]
  IC50: 0.161 µg/mL
  IC80: 0.971 µg/mL
  MPI: 100
[27]
  IC50: 3.05 µg/mL
  IC80: 16.7 µg/mL
  MPI: 100
[28]
  IC50: 7.63 µg/mL
  IC80: 25.1 µg/mL
  MPI: 100
[31]
  IC50: 0.179 µg/mL
  IC80: 1.09 µg/mL
  MPI: 100
[32]
  IC50: 6.82 µg/mL
  IC80: 22 µg/mL
  MPI: 100
[33]
  IC50: 5.36 µg/mL
  IC80: 18.4 µg/mL
  MPI: 100

Source: patent publication US20230002480A1
